Source: US20230407373A1 (priority 2020, published 2023)
Where two headings read alike, the source gives them in different places.

Tested on: HCoV-OC43 gRNA and sgRNA
Assay type: binding
Conditions: for target (unweighted spectral count): OC43 Probe II, infected cells; for target (unweighted spectral count) / target (unweighted spectral count, OC43 Probe II capture): tested against no-probe control; for target (unweighted spectral count, OC43 Probe II capture): FDR<10%

B1: KRT9 (protein, UniProt P35527 1-623, looked up)
Keratin, type I cytoskeletal 9: MSCRQFSSSYLSRSGGGGGGGLGSGGSIRSSYSRFSSSGGGGGGGRFSSSSGYGGGSSRVCGRGGGGSFGYSYGGGSGGGFSASSLGGGFGGGSRGFGGASGGGYSSSGGFGGGFGGGSGGGFGGGYGSGFGGFGGFGGGAGGGDGGILTANEKSTMQELNSRLASYLDKVQALEEANNDLENKIQDWYDKKGPAAIQKNYSPYYNTIDDLKDQIVDLTVGNNKTLLDIDNTRMTLDDFRIKFEMEQNLRQGVDADINGLRQVLDNLTMEKSDLEMQYETLQEELMALKKNHKEEMSQLTGQNSGDVNVEINVAPGKDLTKTLNDMRQEYEQLIAKNRKDIENQYETQITQIEHEVSSSGQEVQSSAKEVTQLRHGVQELEIELQSQLSKKAALEKSLEDTKNRYCGQLQMIQEQISNLEAQITDVRQEIECQNQEYSLLLSIKMRLEKEIETYHNLLEGGQEDFESSGAGKIGLGGRGGSGGSYGRGSRGGSGGSYGGGGSGGGYGGGSGSRGGSGGSYGGGSGSGGGSGGGYGGGSGGGHSGGSGGGHSGGSGGNYGGGSGSGGGSGGGYGGGSGSRGGSGGSHGGGSGFGGESGGSYGGGEEASGSGGGYGGGSGKSSHS
- target (unweighted spectral count) (24 hpi (type n_24_v)): 53

B2: HMGB1 (protein, UniProt P09429 1-215, looked up)
High mobility group protein B1: MGKGDPKKPRGKMSSYAFFVQTCREEHKKKHPDASVNFSEFSKKCSERWKTMSAKEKGKFEDMAKADKARYEREMKTYIPPKGETKKKFKDPNAPKRPPSAFFLFCSEYRPKIKGEHPGLSIGDVAKKLGEMWNNTAADDKQPYEKKAAKLKEKYEKDIAAYRAKGKPDAAKKGVVKAEKSKKKKEEEEDEEDEEDEEEEEDEEDEDEEEDDDDE
- target (unweighted spectral count) (12 hpi (type n_12_v)): 7
- target (unweighted spectral count) (24 hpi (type n_24_v)): 6

B3: LMNA (protein, UniProt P02545 1-661, looked up)
Prelamin-A/C: METPSQRRATRSGAQASSTPLSPTRITRLQEKEDLQELNDRLAVYIDRVRSLETENAGLRLRITESEEVVSREVSGIKAAYEAELGDARKTLDSVAKERARLQLELSKVREEFKELKARNTKKEGDLIAAQARLKDLEALLNSKEAALSTALSEKRTLEGELHDLRGQVAKLEAALGEAKKQLQDEMLRRVDAENRLQTMKEELDFQKNIYSEELRETKRRHETRLVEIDNGKQREFESRLADALQELRAQHEDQVEQYKKELEKTYSAKLDNARQSAERNSNLVGAAHEELQQSRIRIDSLSAQLSQLQKQLAAKEAKLRDLEDSLARERDTSRRLLAEKEREMAEMRARMQQQLDEYQELLDIKLALDMEIHAYRKLLEGEEERLRLSPSPTSQRSRGRASSHSSQTQGGGSVTKKRKLESTESRSSFSQHARTSGRVAVEEVDEEGKFVRLRNKSNEDQSMGNWQIKRQNGDDPLLTYRFPPKFTLKAGQVVTIWAAGAGATHSPPTDLVWKAQNTWGCGNSLRTALINSTGEEVAMRKLVRSVTVVEDDEDEDGDDLLHHHHGSHCSSSGDPAEYNLRSRTVLCGTCGQPADKASASGSGAQVGGPISSGSSASSVTVTRSYRSVGGSGGGSFGDNLVTRSYLLGNSSPRTQSPQNC
- target (unweighted spectral count) (12 hpi (type n_12_v)): 7
- target (unweighted spectral count) (24 hpi (type n_24_v)): 8

B4: MTDH (protein, UniProt Q86UE4 1-582, looked up)
Protein LYRIC: MAARSWQDELAQQAEEGSARLREMLSVGLGFLRTELGLDLGLEPKRYPGWVILVGTGALGLLLLFLLGYGWAAACAGARKKRRSPPRKREEAAAVPAAAPDDLALLKNLRSEEQKKKNRKKLSEKPKPNGRTVEVAEGEAVRTPQSVTAKQPPEIDKKNEKSKKNKKKSKSDAKAVQNSSRHDGKEVDEGAWETKISHREKRQQRKRDKVLTDSGSLDSTIPGIENTITVTTEQLTTASFPVGSKKNKGDSHLNVQVSNFKSGKGDSTLQVSSGLNENLTVNGGGWNEKSVKLSSQISAGEEKWNSVSPASAGKRKTEPSAWSQDTGDANTNGKDWGRSWSDRSIFSGIGSTAEPVSQSTTSDYQWDVSRNQPYIDDEWSGLNGLSSADPNSDWNAPAEEWGNWVDEERASLLKSQEPIPDDQKVSDDDKEKGEGALPTGKSKKKKKKKKKQGEDNSTAQDTEELEKEIREDLPVNTSKTRPKQEKAFSLKTISTSDPAEVLVKNSQPIKTLPPATSTEPSVILSKSDSDKSSSQVPPILQETDKSKSNTKQNSVPPSQTKSETSWESPKQIKKKKKARRET
- target (unweighted spectral count, OC43 Probe II capture) (24 hpi, type n_24_v): 5
- target (unweighted spectral count, OC43 Probe II capture) (36 hpi, type n_36_v): 6
- target (unweighted spectral count, OC43 Probe II) (type n_48_v, 48 hpi, OC43 Probe II capture on infected cells): 6
- background (unweighted spectral count, no-probe control) (type n_48_v, 48 hpi, no-probe control on infected cells): 1

B5: KRT1 (protein, UniProt P04264 2-644, looked up)
Keratin, type II cytoskeletal …: SRQFSSRSGYRSGGGFSSGSAGIINYQRRTTSSSTRRSGGGGGRFSSCGGGGGSFGAGGGFGSRSLVNLGGSKSISISVARGGGRGSGFGGGYGGGGFGGGGFGGGGFGGGGIGGGGFGGFGSGGGGFGGGGFGGGGYGGGYGPVCPPGGIQEVTINQSLLQPLNVEIDPEIQKVKSREREQIKSLNNQFASFIDKVRFLEQQNQVLQTKWELLQQVDTSTRTHNLEPYFESFINNLRRRVDQLKSDQSRLDSELKNMQDMVEDYRNKYEDEINKRTNAENEFVTIKKDVDGAYMTKVDLQAKLDNLQQEIDFLTALYQAELSQMQTQISETNVILSMDNNRSLDLDSIIAEVKAQYEDIAQKSKAEAESLYQSKYEELQITAGRHGDSVRNSKIEISELNRVIQRLRSEIDNVKKQISNLQQSISDAEQRGENALKDAKNKLNDLEDALQQAKEDLARLLRDYQELMNTKLALDLEIATYRTLLEGEESRMSGECAPNVSVSVSTSHTTISGGGSRGGGGGGYGSGGSSYGSGGGSYGSGGGGGGGRGSYGSGGSSYGSGGGSYGSGGGGGGHGSYGSGSSSGGYRGGSGGGGGGSSGGRGSGGGSSGGSIGGRGSSSGGVKSSGGSSSVKFVSTTYSGVTR
- target (unweighted spectral count, OC43 Probe II capture) (24 hpi, type n_24_v): 49

B6: KRT14 (protein, UniProt P02533 1-472, looked up)
Keratin, type I cytoskeletal …: MTTCSRQFTSSSSMKGSCGIGGGIGGGSSRISSVLAGGSCRAPSTYGGGLSVSSSRFSSGGACGLGGGYGGGFSSSSSSFGSGFGGGYGGGLGAGLGGGFGGGFAGGDGLLVGSEKVTMQNLNDRLASYLDKVRALEEANADLEVKIRDWYQRQRPAEIKDYSPYFKTIEDLRNKILTATVDNANVLLQIDNARLAADDFRTKYETELNLRMSVEADINGLRRVLDELTLARADLEMQIESLKEELAYLKKNHEEEMNALRGQVGGDVNVEMDAAPGVDLSRILNEMRDQYEKMAEKNRKDAEEWFFTKTEELNREVATNSELVQSGKSEISELRRTMQNLEIELQSQLSMKASLENSLEETKGRYCMQLAQIQEMIGSVEEQLAQLRCEMEQQNQEYKILLDVKTRLEQEIATYRRLLEGEDAHLSSSQFSSGSQSSRDVTSSSRQIRTKVMDVHDGKVVSTHEQVLRTKN
- target (unweighted spectral count, OC43 Probe II capture) (24 hpi, type n_24_v): 7

B7: DDX21 (protein, UniProt Q9NR30 1-783, looked up)
Nucleolar RNA helicase 2: MPGKLRSDAGLESDTAMKKGETLRKQTEEKEKKEKPKSDKTEEIAEEEETVFPKAKQVKKKAEPSEVDMNSPKSKKAKKKEEPSQNDISPKTKSLRKKKEPIEKKVVSSKTKKVTKNEEPSEEEIDAPKPKKMKKEKEMNGETREKSPKLKNGFPHPEPDCNPSEAASEESNSEIEQEIPVEQKEGAFSNFPISEETIKLLKGRGVTFLFPIQAKTFHHVYSGKDLIAQARTGTGKTFSFAIPLIEKLHGELQDRKRGRAPQVLVLAPTRELANQVSKDFSDITKKLSVACFYGGTPYGGQFERMRNGIDILVGTPGRIKDHIQNGKLDLTKLKHVVLDEVDQMLDMGFADQVEEILSVAYKKDSEDNPQTLLFSATCPHWVFNVAKKYMKSTYEQVDLIGKKTQKTAITVEHLAIKCHWTQRAAVIGDVIRVYSGHQGRTIIFCETKKEAQELSQNSAIKQDAQSLHGDIPQKQREITLKGFRNGSFGVLVATNVAARGLDIPEVDLVIQSSPPKDVESYIHRSGRTGRAGRTGVCICFYQHKEEYQLVQVEQKAGIKFKRIGVPSATEIIKASSKDAIRLLDSVPPTAISHFKQSAEKLIEEKGAVEALAAALAHISGATSVDQRSLINSNVGFVTMILQCSIEMPNISYAWKELKEQLGEEIDSKVKGMVFLKGKLGVCFDVPTASVTEIQEKWHDSRRWQLSVATEQPELEGPREGYGGFRGQREGSRGFRGQRDGNRRFRGQREGSRGPRGQRSGGGNKSNRSQNKGQKRSFSKAFGQ
- target (unweighted spectral count, OC43 Probe II capture) (24 hpi, type n_24_v): 7

B8: KRT6A (protein, UniProt P02538 2-564, looked up)
Keratin, type II cytoskeletal …: ASTSTTIRSHSSSRRGFSANSARLPGVSRSGFSSVSVSRSRGSGGLGGACGGAGFGSRSLYGLGGSKRISIGGGSCAISGGYGSRAGGSYGFGGAGSGFGFGGGAGIGFGLGGGAGLAGGFGGPGFPVCPPGGIQEVTVNQSLLTPLNLQIDPTIQRVRAEEREQIKTLNNKFASFIDKVRFLEQQNKVLETKWTLLQEQGTKTVRQNLEPLFEQYINNLRRQLDSIVGERGRLDSELRGMQDLVEDFKNKYEDEINKRTAAENEFVTLKKDVDAAYMNKVELQAKADTLTDEINFLRALYDAELSQMQTHISDTSVVLSMDNNRNLDLDSIIAEVKAQYEEIAQRSRAEAESWYQTKYEELQVTAGRHGDDLRNTKQEIAEINRMIQRLRSEIDHVKKQCANLQAAIADAEQRGEMALKDAKNKLEGLEDALQKAKQDLARLLKEYQELMNVKLALDVEIATYRKLLEGEECRLNGEGVGQVNISVVQSTVSSGYGGASGVGSGLGLGGGSSYSYGSGLGVGGGFSSSSGRAIGGGLSSVGGGSSTIKYTTTSSSSRKSYKH
- target (unweighted spectral count, OC43 Probe II capture) (24 hpi, type n_24_v): 4

B9: RBFOX2 (protein, UniProt O43251 1-390, looked up)
RNA binding protein fox-1 …: MQNEPLTPGYHGFPARDSQGNQEPTTTPDAMVQPFTTIPFPPPPQNGIPTEYGVPHTQDYAGQTGEHNLTLYGSTQAHGEQSSNSPSTQNGSLTTEGGAQTDGQQSQTQSSENSESKSTPKRLHVSNIPFRFRDPDLRQMFGQFGKILDVEIIFNERGSKGFGFVTFENSADADRAREKLHGTVVEGRKIEVNNATARVMTNKKMVTPYANGWKLSPVVGAVYGPELYAASSFQADVSLGNDAAVPLSGRGGINTYIPLISLPLVPGFPYPTAATTAAAFRGAHLRGRGRTVYGAVRAVPPTAIPAYPGVVYQDGFYGADLYGGYAAYRYAQPATATAATAAAAAAAAYSDGYGRVYTADPYHALAPAASYGVGAVASLYRGGYSRFAPY
- target (unweighted spectral count, OC43 Probe II capture) (24 hpi, type n_24_v): 4
- target (unweighted spectral count, OC43 Probe II capture) (36 hpi, type n_36_v): 4
